# How the values were obtained:
# [1] = target: canine PD-1 (canine); assay: flow cytometry; row 1*10^4; Anti-mouse IgGFc-Alexa Fluor 647(1:500)
# [2] = target: human BTLA (human) (UniProt Q7Z6A9); assay: as above
# [3] = target: canine PD-1 (canine); assay: flow cytometry; row 1*10^5; Anti-mouse IgGFc-Alexa Fluor 647(1:500)
# [4] = target: human BTLA (human) (UniProt Q7Z6A9); assay: as above
# [5] = target: canine PD-1 (canine); assay: flow cytometry; row 1*10^3; Anti-mouse IgGFc-Alexa Fluor 647(1:500)
# [6] = target: human BTLA (human) (UniProt Q7Z6A9); assay: as above
# Sequence of UniProt Q7Z6A9 (Q7Z6A9 31-157 limits assumed): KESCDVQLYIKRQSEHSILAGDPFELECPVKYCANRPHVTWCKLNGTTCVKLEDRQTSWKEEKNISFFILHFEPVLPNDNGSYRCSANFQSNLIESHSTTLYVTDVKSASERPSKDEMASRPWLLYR
substance,measurement,setting,value
NC,percent of cells in the gate,[1],0.068%
same,percent of cells in the gate,[2],1.2%
same,percent of cells in the gate,[3],0.273%
same,percent of cells in the gate,[4],0.841%
same,percent of cells in the gate,[5],0.155%
same,percent of cells in the gate,[6],0.406%

# From US20230064196A1
